Test results as given in article PMC516023 (2004).

B1: HIV-1 Vpr, wild type [HIV-1] / GST-fused di-W peptide WWSFKSV (GST-B4) (parent complex)
chain 1: MEQAPEDQGPQREPHNEWTLELLEELKNEAVRHFPRIWLHGLGQHIYETYGDTWAGVEAIIRILQQLLFIHFRIGCRHSRIGVTRQRRARNGASRS
chain 2: WWSFKSV

Variants of: B1
Assay: GST pull-down, autoradiography scanning; parent: 100; read off a plot

Variant | percent of parent
chain 1 R87A, chain 1 R88A | ~71%
chain 1 R62P | ~4%
chain 1 R80A | ~88%
chain 1 I63K | ~80%
chain 1 A30F | ~6%
chain 1 L23F | ~10%
chain 1 F34I | ~80%
chain 1 E25K | ~86%
chain 1 E21K | ~7%
